Reference: patent US20240228568A1 (CENTRO DE INGENIER A GEN TICA Y BIOTECNOLOG A, published 2024)
Where no end group is shown, it is not given here. [ ]: non-standard residue; d: D form.

Experiments:
[1] = target: T1, IL-15 receptor subunit on CTLL-2 cells; experiment: cell-based or functional assay
T1 sequence (Q60819 whole entry, species assumed, looked up): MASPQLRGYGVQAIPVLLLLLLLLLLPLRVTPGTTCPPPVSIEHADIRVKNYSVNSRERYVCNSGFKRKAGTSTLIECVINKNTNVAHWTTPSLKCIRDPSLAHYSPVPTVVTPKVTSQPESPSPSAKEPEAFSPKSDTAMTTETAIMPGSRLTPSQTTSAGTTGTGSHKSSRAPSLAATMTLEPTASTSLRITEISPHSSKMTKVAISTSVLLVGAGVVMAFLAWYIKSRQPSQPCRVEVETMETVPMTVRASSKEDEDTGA

[2] = target: T1, IL-15 receptor subunit on CTLL-2 cells; experiment: cell-based or functional assay; remark: listed apart in the source

KVTAMKCFLL (not fully specified (C-terminus)) [Peptide 1]
IC50 in the CTLL-2 cell proliferation assay [1]: 130 µM

KVT[dA]MKCFLL-NH2 (also: disulfide-linked homodimer through the Cys) [Peptide 12]
antagonist effect on IL-15-induced proliferation, fold against Peptide 1 [2]: 16 times
antagonist effect on IL-15-induced proliferation, fold against Peptide 5 [2]: 3 times
IC50 in the CTLL-2 cell proliferation assay [1]: 8 µM

KVT[dA]MKCFLL-NH2 [Peptide 5]
IC50 in the CTLL-2 cell proliferation assay [1]: 28 µM
